From the nanobody polyreactivity screen of Harvey et al. (2022)

Assay: yeast display, Sf9 membrane polyspecificity reagent, FACS + sequencing; frameworks hold sequencing errors
How it was run: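 Using colony PCR, genes from sorted yeast display clones were amplified, then sequenced on MiSeq at 2 × 250 and filtered by CDR length. The clones had been stained with 10% biotinylated, detergent-solubilized Sf9 membrane reagent for 1 hour at 4 °C and sorted by FACS into low and high (top ~1%) gates on anti-HA and streptavidin fluorescence. Polyreactivity labels come from the gate of origin.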

| Sequence | polyreactivity (PSR sort gate) |
| --- | --- |
| QVQLVESGGGLVQAGGSLRLSCAASGITFTSYVMGWYRQAPGKERELVAAIRWSGGRTYYADSVKGRFTISRDNAKITVYLQMNSLKPEDTAVYYCNRVTRSHVDYWGQGTQVTLSS | high polyreactivity |
| QVQLVESGGGLVQAGGSLRLSCAASGRIFGGNTMGWYRQAPGKEREFVAAITQSGTRTYYADSVKGRFTISRDNAKNTVYLQMNSLKPEDTAVYYCAAEGYWYPYDYWGQGTQVTVSS | high polyreactivity |
| QGQLVESGGALVQAGGSLRLICAASGRTFAAYSMGWYRQAPGKERELVAAISIGGSTNYADSVKVRFTISRDNAKNSVYLQMNSLKPEDSAVYYCAAPGRRYLRARIRYEYWGQGTQLTVSS | high polyreactivity |
| QVQLVESGGGLVQAGGSLRLSCASSGTIFSWYTMGRYRQAPGKERELVARITTSGGTTRYADSVKGRFTISRDNAKNTVYFQINSLKPEDTAVYYCAADRSPYWRGYFRYNYWGQGSQVTVSS | high polyreactivity |
| QVQLVESGGGLVQAGGSLRLSCASSGTTFQYYAMGSYRQAPGKERELVARISDSSANTYYADSVNGRFTISRDNAMNTVYLQMNSLKPEDTAVYYCAASVPYKFYCVVSVRYEYWGQGTQVTVSS | low polyreactivity |
| QLQLVESGGGLVQAGGSLRLSCAASGSTFSPYAMGWYRQAPGKERELVAAISASGGGTYYADSVKWRLTISRDNAKNTVYLQMNSLKPEDTAVYYCARDYGWDISKGRYGYWGQGTQVTVSS | low polyreactivity |
| QVQLVDSCGGLVQAGGSLSLSCAASGRTFTRYAMGWYRQAPGKERELVASITNGGGTYYADSVKGRFTISRDNAKNTVYLQMNSLKPEDTAVYYCAKAERVTSHIYYSWGQGTQVTVSS | low polyreactivity |
| QVQLVESGGGLVQAGGSLRLSCAASGSNFVGNAMGWYRQAPGKERELFAAISSGGSTYYADSVKGRFTISRDNAKNTVYLQLNSLKPEDTAVYYCAAYYVRRYSSRPKDDYWGQGTQVTVSS | low polyreactivity |
| QVQLVESGGGLVQAGGSLRLSCAASGGTFGAYAMGWYRQAPGKERELVAAISGSGARTYYADSVKGRFTISRDNAKNTVYVQMNSLKPEDTAVYYCAARSTGTRVGEYDYWGQGTQVTVSS | high polyreactivity |
| QVQLVESGGGLVQAGGRLRLSCAASGRTFSKYGMGGYRQAPGKEREFVAAISSSGDSTTYADSVKGRFTISRDNAKNAVYLQMNSLKPEDTAVSYCARQTSRYTGGERAYGYWGQGTQVTVSS | low polyreactivity |
| QVQLVESGGGLVQAGGSLRLSCAASGRIFTNNAMGWYREAPGKERELVAAISKRGGSTYYADSVKGRFTISRDNAKNTVYLQMNSLKPEDTAVYYCNAREYIHWRGALGLFGSWGQGTQVTVSS | high polyreactivity |
| QVQLVESGGALVQAGGSLRLSCAASGSTIYQNAMGWYRQAPGKERELVAVISSGGSTYYADSVKGRFTISRDNAKNTVYLQMNSLKAEDTAVYYCAADRGTVSYLYSPRAVDYWGQGTQVTVSS | low polyreactivity |
| QVQLEESGGGLVQAGGRLRLSCAASGRIFSRNAMGGSRTATGKERELVAAISSSTGSTYYADSVKGRFTISRDNAKKTVYLQMNSLKPEDTAVYYCAARYWGDYFTEMNYWGQGTQVTVSS | high polyreactivity |
| QVQLVESGGGLVQAGGSLRLSCAASGSTSRLYAMGWYSQAPGKERELVAAIRYSSGTTYYADSVTVRFTISRDNAKNTVYLQMNSLKPEDTAVYYCAAVTIRRYGPAEYNYWGQGTQVTVSS | high polyreactivity |
| QVQLVESGGGLVQAGGSLRLSCAASGRTFYTNAMGRYRQAPGKERELVAAISRGGGRTYYADSVKGRFTISRDNAKNTVYLQMNSLKPEDTAVYYCAASPYQGQGREYYYWGQGTQVTVSS | high polyreactivity |
| QVQLVESGGGLVQAGGSLRLSCAASGRTFGPYAMGWYRQAPGKEREMVAAIRFSGGSTYYADSVKGRFTISRDNAKNTVYLQMNSLKPEDTAVYYCNARLGSSKGRVEKYGSWGQGTQVTVSS | high polyreactivity |
| QVQLVESGGGLVQAGGSLRLSCAASGGWYRQAPGKERELVAAISWRDSSTYYADSVKGRFTISRDNAKNTVYLQMNSLKPEDTAVYYCAVRAYPWPEYYYWGQGTQVTVSS | low polyreactivity |
| QVQLVESGGGLVQAGVSLRLSCAASGFTFAYYAMGWYRQAPGKERELVAAITSGGRTNYADSVKGRFTISRDNAKNTGYLQMISLKAEDTAVSYCAKYRRGGSRHYSVFNHDYWGLGTQVTVSS | high polyreactivity |
| QDQLVESGGGLVQAGGSLRLSCAASGIIYLTYAMGRYRQEPGKERELVATITSGGRTIYADSVKGRFTISLDNAKNTVYLQMNRLKPVDTAVYYCNALRYYHYDYWGQGTQVTVSS | high polyreactivity |
| QVQLVESGGGLVQAGGSLRLSCAASGSTIYFYAMGWYRQAPGKERELVAAISGSGGRTYYADSVKGRFTISRDNAKNTVYLQMNSLKPEDTAVYYCAAEWYPYSDREFLYYYWGQGTQVTVSS | high polyreactivity |
| QVQLLESGGGLVQSGGSLRLSCAASGLTFGSNAMGWYRQATGKEREMVAAISYGGGSTSYADSVKGRFTISRDNAKNTVYLQMNSLKPEDTSVYYCAVVWLCAYSRTNYYYWGQGTQVTVSS | low polyreactivity |
| QVQLVESGGGLVQAGGSLRLSCAASGSTFRGYAMGWYRQAPGKERELVAAITRSGGSTYYADSVKGRFTISRDNAKNTVYLQMNSLKPEDTAVYYCNDRAFPYYRRFDYWGQGTQVTVSS | high polyreactivity |

| Sequence | polyreactivity (PSR sort gate) |
| --- | --- |
| QVQLEESGGGLVQAGGSLRLSCAASGRTFWDNARGWNRQAPGKERELVATITSGDSTNYAASVKGRFTISRDNAKNTVYLQMNSLKPEDTAVYYCARVIVFDAYEFDYWGQGTQVTVSS | low polyreactivity |
| QVQLVESVGGLVQAGGSLRLSCAASGNTFSYNAMGWYRQAPGKERELVAAIRWSGGSTYYADSVKGRFTISRDNAKNTVYLQMNSLKPEDTAVYYCNARYASTNYGWFSYYWGQGTQVTVSS | high polyreactivity |
| QDQLVESGGGLVQAGGSLRLSCAASGRIFAPNAMGWYRQAPGKERELVAAITYSGTSTYADSVKGRFTISRDNAKNTVYLQMNSLKPEDTAVYYCAAEGSGVYYHSYDYWGQGTQVTVSS | low polyreactivity |
| QDQLVESVGGLVQAGGSLRLSCAASGSTISLYAMGWYRQAPGKERELVAAISQSGSRTYFADSVKGRFTISRDNAKNTVYLQMISLKQEDTAVYYCAAYSPQTYLRWTYGYWGQGTQVTVSS | high polyreactivity |
| QVQHVESGGGLVQAGVSLRLSCAASGSIFVNNGMGWYRQAPGKERELVAAIRLSTGSTYYADSVKGRFTISRDNAKNTVYLQMNSLKPEDTAVYYCATRSYIWGNWGQGTQVTVSS | high polyreactivity |
| QVQLVESGGGLVQAGGSLRLSCAASGFTFFNYGRGWSRQAHGKERELVAAISSNGGLTYYADSVKGRFTISRDNAKNTVYLQMNSLKPEDTAVYYCATLYYGRVDYDYWGQGTQVTVSS | high polyreactivity |
| QVQLLESGGGLVQAGGTLRLSCAASGSTFRYNAMGWYRQAPGKERELVAAITSGGRTNYADSVKGRFTISRDNAKYTFYLQMNSLKPEDTGVYYCAARRYCRNWHNVYWGQGTQVTVSS | high polyreactivity |
| QVKLVESGGGLVQAGGSLRLSFAASGFTCNANAMGWYRQAPGQERELVAAISLSGGRTYYADSVKGRFTISRDNAKNTVYLQMNSLKAEDTAVYYCAASPDGSFRRFSRVVSGDYWGQGTQVTVSS | high polyreactivity |
| QVQLVESGGGLVQAGGSLRLSCAASGRTFQINAMGWYRQAPGKERELVAAITWSGGSTYYADSVKGRFTISRDNAKNTVYLQMNSLKPEDTAVYYCNKRYRAYATLNLIAGYNYWGQGTQVTVSS | low polyreactivity |
| QVQLVESGGGLVQAGGSLRLSCAASGRIFNHYAMGWYRQAPGKERELVASITSGAGTNYADSVKGRFTISRDNAKNTVYLQMNSLKPEDTAVYYCNADLYDYYYSDGDYWGQGTQVTVSS | high polyreactivity |
| QVQLVESGGGLVQAGGSLRLSCAASGNTFAYYAMGWYRQAPGKERELVAAISGSGGRTYYADSVKGRFTISRDNAKNTVYFQMNILKPEDTAVYYCNARPAGGLGYGYWGQGTQVTVSS | high polyreactivity |
| QVQLVESGGRLVQAVGSLRLSCAASGFTSHKYAMGWYRQAPGKERELVAAITSSGGRTYYADSVKGRFTISRDNAKNTVYFQTNSLKPEDTAVYYCNKLGRVGDAREYWGQGTQVTVSS | high polyreactivity |
| QVQLVESGGGLVQAGGSLRLSCAASGRTLRIYAMGWYRQAPGKERELVAAITSSGRTNYADSVKGRFTISRDNAKNTVYLQMNSLKPEDTAVYYCAAVTPAVNYFRAASGYYYWGQGTQVTVSS | low polyreactivity |
| QVQLVESGGGLVQAGGSLRLSCAASGITFVRYAMGWYRQAPGKERELVAAIRQNGGDTYYADSVKRRFTISRDNAKNTDYLQMNSLKPEDTAVYYCNARMRGAGGYTYYYWGQGTQVTVSS | high polyreactivity |
| QVQLVESGGCLVQAGGSLRLSCAASGRTFYPYAMGWYRQAPGQDRELVAAIRSSGGTTYYADSVKGRFTISRDNAKNTVYLQMNSLKREDTAVYYCAAFVDRQGGYYWGQGTQVTVSS | high polyreactivity |
| QVQLVESGGGLVQAGGSLRLSCAASGSTFAYYAMGWYRQAPGKERELVAVISVSGDGTSTYYADSVKGRFTISRDNAKNTVYLQMNSLKPEDSAVYYCAAEQVLVGGHTYSLTYDYWGQGTQVTVSS | low polyreactivity |
| QVQLVESGGGLVQAGGSLRLSCAASGRAFYGNAMGWYRPAPGKERELVASISQRGGSTYYADSVKGRFTISRDTAKNTVYLQMNSLKPEDTAVYYCAARRKGYSTGLGHRISYDYWGQGTQVTVSS | high polyreactivity |
| QVQLVESGGGLVQAGGSLRLSCAASGSIFVKNAMGWYRQAPGKERELVARITYSGGSTYYADSVKGRFTISRDNAKNTVYLQMNSLKPEDTADYYCDTDGNLRTAGYAYDHYYWGQGTQVTVSS | high polyreactivity |
| QVQLVESGGGLVQAGGSLRLSCADSGRTFYRYAMVWYRQSPGKERELVAAITTSGGSTYYADSVKGRFTISRDNAKNTVYLQMNSLKPEDTAVYYCAATYYGYHIRDDYWGQGTQVTVSS | low polyreactivity |
| QVQLVESGGGLVQAGGSLRLSCAASGIIFAHNAMGWYRQAPGKERELVAAISKRGGSTYYADSVKGRFTISLDNAKNTVYLQMNSLKPEDTAVYYCAAASFTWVSRGYDYWGQGTQVTVAS | high polyreactivity |
| QVQLVESGGGLVQAGGSLRLSCAASGIIFAWYAMGWYRQAPGKERELVAAITSRGGSRTFYADSVKGRFTISRDNAKNTVYLQMNSLKPEDTAVYYCAVVTRAHPEDYWGQGTQVTVSS | high polyreactivity |
